According to US20250320284A1 (AC IMMUNE, published 2025):

These binders were tested against T1, human ASC (apoptosis associated speck-like protein containing a caspase-recruitment domain) (human, UniProt Q9ULZ3 1-195) (assay: SPR, hASC immobilized, Fab in flow;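 note: hASC amine-coupled on a CM5 chip (about 500 RU), Fab analytes measured by single-cycle kinetics in PBS-P+ running buffer, glycine pH 1.7 regeneration between Fabs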).
T1 construct: recombinant hASC in ELISA and SPR; endogenous ASC (cytoplasmic or specks) in Western blot and immunofluorescence; also called hASC; PYCARD
T1 sequence (Q9ULZ3 whole entry, the tested form may be a part): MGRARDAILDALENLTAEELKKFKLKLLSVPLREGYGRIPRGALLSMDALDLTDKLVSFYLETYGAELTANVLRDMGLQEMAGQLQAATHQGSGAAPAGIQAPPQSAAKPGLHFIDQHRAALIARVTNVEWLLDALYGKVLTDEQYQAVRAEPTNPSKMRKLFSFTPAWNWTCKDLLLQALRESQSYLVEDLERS

| Binder | Kd [nM] | koff [s⁻¹] | kon [M⁻¹ s⁻¹] |
| --- | --- | --- | --- |
| ACI-8016-32B6C7-AB1 chimeric Fab (Fab, V domains shown, Fab) VH: QVQLQQSDAELVKPGASVKISCKISGYTFTDQTIHWMNQRPEQGLEWIGYIYPGDGSAMYNEKFRGKATLTADKSSSTAYMQLNSLTSEDSAVYFCARPLYSYASYYWFAYWGQGTLVTVSA VL: DIQMNQSPSSLSASLGDTITITCHASQNINVWLSWYQRKPGNIPKLLIYKSSNLHTGVPSRFSGSGSGTGFTLTISSLQPEDIATYYCQQGQSYPLTFGGGTKLEIK | 1.01 | 2.11e-05 | 20900 |
| hACI-8016-32B6C7-AB1_H9L3 Fab (Fab, V domains shown) VH: EVQLVQSGAEVKKPGESLKISCKISGYSFTDQTIHWVHQMPGKGLEWMGYIYPGDGSAMYNEKFQGQVTISADKSISTAYLQWSSLKASDTAMYYCARPLYSYASYYWFAYWGQGTLVTVSS VL: EIVLTQSPATLSLSPGERATLSCHASQNINVWLSWYQQKPGQAPRLLIYKSSNLHTGIPARFSGSGSGTDFTLTISSLEPEDFAVYYCQQGQSYPLTFGQGTKLEIK | 0.091 | 8.87e-06 | 99100 |
| hACI-8016-32B6C7-AB1_H5L4 Fab (Fab, V domains shown) VH: QVQLVQSGAEVKKPGSSVKVSCKISGYTFTDQTIHWVRQAPGQGLEWMGYIYPGDGSAMYNEKFQGRVTITADKSTSTAYMELSSLRSEDTAVYYCARPLYSYASYYWFAYWGQGTLVTVSS VL: EIVLTQSPATLSLSPGERATLSCHASQNINVYLSWYQQKPGQAPRLLIYKSSNLHTGIPARFSGSGSGTDFTLTISSLEPEDFAVYYCQQGQSYPLTFGQGTKLEIK | 0.079 | 6.68e-06 | 84500 |
| hACI-8016-32B6C7-AB1_H2L3 Fab (Fab, V domains shown) VH: EVQLVQSGAEVKKPGESLKISCKISGYTFTDQTIHWVHQMPGKGLEWMGYIYPGDGSAMYNEKFQGQVTISADKSISTAYLQWSSLKASDTAMYYCARPLYSYASYYWFAYWGQGTLVTVSS VL: EIVLTQSPATLSLSPGERATLSCHASQNINVWLSWYQQKPGQAPRLLIYKSSNLHTGIPARFSGSGSGTDFTLTISSLEPEDFAVYYCQQGQSYPLTFGQGTKLEIK | 0.105 | 8.64e-06 | 82200 |

The remaining binders from weak to strong by Kd, led by results:

| Kd [nM] | koff [s⁻¹] | kon [M⁻¹ s⁻¹] | Binder |
| --- | --- | --- | --- |
| 0.084 | 7.09e-06 | 84100 | hACI-8016-32B6C7-AB1_H13L4 Fab (Fab, V domains shown) VH: EVQLVQSGAEVKKPGESLKISCKISGYSFTDQTIHWVHQMPGKGLEWMGYIYPGDSSAMYNEKFQGQVTISADKSISTAYLQWSSLKASDTAMYYCARPLYSYASYYWFAYWGQGTLVTVSS VL: EIVLTQSPATLSLSPGERATLSCHASQNINVYLSWYQQKPGQAPRLLIYKSSNLHTGIPARFSGSGSGTDFTLTISSLEPEDFAVYYCQQGQSYPLTFGQGTKLEIK |
| 0.081 | 7.52e-06 | 92000 | hACI-8016-32B6C7-AB1_H9L4 Fab (Fab, V domains shown) VH: EVQLVQSGAEVKKPGESLKISCKISGYSFTDQTIHWVHQMPGKGLEWMGYIYPGDGSAMYNEKFQGQVTISADKSISTAYLQWSSLKASDTAMYYCARPLYSYASYYWFAYWGQGTLVTVSS VL: EIVLTQSPATLSLSPGERATLSCHASQNINVYLSWYQQKPGQAPRLLIYKSSNLHTGIPARFSGSGSGTDFTLTISSLEPEDFAVYYCQQGQSYPLTFGQGTKLEIK |
| 0.077 | 8.16e-06 | 108000 | hACI-8016-32B6C7-AB1_H4L3 Fab (Fab, V domains shown) VH: QVQLVQSGAEVKKPGSSVKVSCKISGYSFTDQTIHWVRQAPGQGLEWMGYIYPGDGSAMYNEKFQGRVTITADKSTSTAYMELSSLRSEDTAVYYCARPLYSYASYYWFAYWGQGTLVTVSS VL: EIVLTQSPATLSLSPGERATLSCHASQNINVWLSWYQQKPGQAPRLLIYKSSNLHTGIPARFSGSGSGTDFTLTISSLEPEDFAVYYCQQGQSYPLTFGQGTKLEIK |
| 0.077 | 8.01e-06 | 105000 | hACI-8016-32B6C7-AB1_H13L3 Fab (Fab, V domains shown) VH: EVQLVQSGAEVKKPGESLKISCKISGYSFTDQTIHWVHQMPGKGLEWMGYIYPGDSSAMYNEKFQGQVTISADKSISTAYLQWSSLKASDTAMYYCARPLYSYASYYWFAYWGQGTLVTVSS VL: EIVLTQSPATLSLSPGERATLSCHASQNINVWLSWYQQKPGQAPRLLIYKSSNLHTGIPARFSGSGSGTDFTLTISSLEPEDFAVYYCQQGQSYPLTFGQGTKLEIK |
